Measurements from the supplement of paper PMC9112550, “Optimization of the antimicrobial peptide Bac7 by deep mutational scanning” (BMC Biology, 2022).

System: Escherichia coli TOP10
Test: shrunken log2 fold change of peptide-encoding DNA abundance (4.5 h post-induction vs induction); higher = less antimicrobial activity (less host growth inhibition)
Details: time post-induction: 4.5 h; library: site-saturation at positions 5, 18, 19, 20
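Further: peptides expressed intracellularly from a pBAD plasmid library in pooled LB shake-flask culture, induced with 0.3% L-arabinose, DNA abundance read by NGS, three biological replicates, DESeq2 with apeglm shrinkage.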

| Sequence | shrunken log2 fold change |
| --- | --- |
| RRIRNRPPRLPRPRPRPAASPRP | 0.739 |
| RRIRQRPPRLPRPRPRPKIHPRP | -0.558 |
| RRIRQRPPRLPRPRPRPHINPRP | -0.921 |
| RRIRARPPRLPRPRPRPAFAPRP | 0.685 |
| RRIRWRPPRLPRPRPRPIQEPRP | -0.0126 |
| RRIRERPPRLPRPRPRPPHWPRP | 0.223 |
| RRIRWRPPRLPRPRPRPESFPRP | 0.528 |
| RRIRIRPPRLPRPRPRPFFWPRP | 0.364 |
| RRIRTRPPRLPRPRPRPITWPRP | -0.252 |
| RRIRYRPPRLPRPRPRPVRQPRP | 0.132 |
| RRIRQRPPRLPRPRPRPVWTPRP | 0.0102 |
| RRIRRRPPRLPRPRPRPMPWPRP | 0.119 |
| RRIRKRPPRLPRPRPRPHQFPRP | -0.114 |
| RRIRHRPPRLPRPRPRPIPCPRP | -0.0558 |
| RRIRARPPRLPRPRPRPPVWPRP | 0.685 |
| RRIRDRPPRLPRPRPRPTWWPRP | 0.433 |
| RRIRIRPPRLPRPRPRPPETPRP | 0.246 |
| RRIRPRPPRLPRPRPRPFHRPRP | -0.0334 |
| RRIRWRPPRLPRPRPRPNTRPRP | 0.15 |
| RRIRWRPPRLPRPRPRPGEHPRP | 0.232 |
| RRIRERPPRLPRPRPRPEQSPRP | -0.0108 |
| RRIRDRPPRLPRPRPRPFDQPRP | -0.115 |
| RRIRLRPPRLPRPRPRPLCTPRP | 0.0663 |
| RRIRGRPPRLPRPRPRPEGCPRP | 1.65 |
| RRIRWRPPRLPRPRPRPHQDPRP | 0.134 |

| Sequence | shrunken log2 fold change |
| --- | --- |
| RRIRVRPPRLPRPRPRPEMRPRP | 0.562 |
| RRIRTRPPRLPRPRPRPNSNPRP | -0.716 |
| RRIRPRPPRLPRPRPRPCWEPRP | -0.0268 |
| RRIRSRPPRLPRPRPRPNIWPRP | -0.0665 |
| RRIRHRPPRLPRPRPRPEPRPRP | 0.137 |
| RRIRCRPPRLPRPRPRPDPRPRP | 0.83 |
| RRIRLRPPRLPRPRPRPHCCPRP | -0.376 |
| RRIRQRPPRLPRPRPRPYYYPRP | -1.18 |
| RRIRDRPPRLPRPRPRPMHEPRP | 0.0698 |
| RRIRIRPPRLPRPRPRPPSAPRP | 0.369 |
| RRIRIRPPRLPRPRPRPQSYPRP | -0.603 |
| RRIRFRPPRLPRPRPRPNEHPRP | -0.525 |
| RRIRDRPPRLPRPRPRPSTHPRP | -0.247 |
| RRIRSRPPRLPRPRPRPFQVPRP | -0.0848 |
| RRIRHRPPRLPRPRPRPSCYPRP | -1.1 |
| RRIRLRPPRLPRPRPRPPQLPRP | 0.206 |
| RRIRCRPPRLPRPRPRPDPEPRP | -0.0407 |
| RRIRRRPPRLPRPRPRPVNPPRP | 0.391 |
| RRIRTRPPRLPRPRPRPDNLPRP | -0.479 |
| RRIRIRPPRLPRPRPRPEDVPRP | -0.0939 |
| RRIRLRPPRLPRPRPRPKQNPRP | 0.2 |
| RRIRKRPPRLPRPRPRPTTEPRP | 0.579 |
| RRIRPRPPRLPRPRPRPRAIPRP | 0.503 |
| RRIRTRPPRLPRPRPRPMPIPRP | -0.0197 |
| RRIRERPPRLPRPRPRPACWPRP | 0.715 |

| Sequence | shrunken log2 fold change |
| --- | --- |
| RRIRKRPPRLPRPRPRPLQEPRP | 0.0634 |
| RRIRVRPPRLPRPRPRPHGHPRP | -0.0491 |
| RRIRFRPPRLPRPRPRPKFIPRP | -1.02 |
| RRIRERPPRLPRPRPRPDCGPRP | 0.0191 |
| RRIRVRPPRLPRPRPRPPDMPRP | -0.239 |
| RRIRCRPPRLPRPRPRPCAPPRP | -0.00137 |
| RRIRYRPPRLPRPRPRPDTSPRP | -0.0824 |
| RRIRQRPPRLPRPRPRPYKTPRP | -0.0141 |
| RRIRCRPPRLPRPRPRPMIFPRP | -0.369 |
| RRIRRRPPRLPRPRPRPDHCPRP | -0.0402 |
| RRIRHRPPRLPRPRPRPSQAPRP | -0.142 |
| RRIRHRPPRLPRPRPRPDTVPRP | 0.028 |
| RRIRSRPPRLPRPRPRPHRDPRP | -0.141 |
| RRIRTRPPRLPRPRPRPEGTPRP | 0.0681 |
| RRIRTRPPRLPRPRPRPQSFPRP | 0.015 |
| RRIRWRPPRLPRPRPRPKRYPRP | 0.0352 |
| RRIRYRPPRLPRPRPRPMFNPRP | -1.14 |
| RRIRKRPPRLPRPRPRPDKDPRP | -0.0555 |
| RRIRFRPPRLPRPRPRPTKCPRP | 0.0225 |
| RRIRVRPPRLPRPRPRPHQWPRP | -0.239 |
| RRIRVRPPRLPRPRPRPAIRPRP | 0.0362 |
| RRIRWRPPRLPRPRPRPRSAPRP | 0.294 |
| RRIRIRPPRLPRPRPRPVGQPRP | -0.195 |
| RRIRARPPRLPRPRPRPEWWPRP | 0.945 |
| RRIRDRPPRLPRPRPRPSYTPRP | -0.302 |

| Sequence | shrunken log2 fold change |
| --- | --- |
| RRIRCRPPRLPRPRPRPRPTPRP | 0.808 |
| RRIRNRPPRLPRPRPRPVDMPRP | -0.104 |
| RRIRSRPPRLPRPRPRPSMVPRP | -0.368 |
| RRIRLRPPRLPRPRPRPVKRPRP | 0.0647 |
| RRIRFRPPRLPRPRPRPWREPRP | -0.149 |
| RRIRWRPPRLPRPRPRPTPGPRP | 0.572 |
| RRIRYRPPRLPRPRPRPWIWPRP | -0.000921 |
| RRIRTRPPRLPRPRPRPRLLPRP | 0.0778 |
| RRIRMRPPRLPRPRPRPGPQPRP | 1.21 |
| RRIRHRPPRLPRPRPRPYCSPRP | -0.337 |
| RRIRIRPPRLPRPRPRPITTPRP | -0.338 |
| RRIRSRPPRLPRPRPRPIFMPRP | -0.117 |
| RRIRDRPPRLPRPRPRPCREPRP | 0.123 |
| RRIRHRPPRLPRPRPRPRGVPRP | 0.335 |
| RRIRWRPPRLPRPRPRPNMSPRP | -0.00987 |
| RRIRFRPPRLPRPRPRPDDWPRP | 0.044 |
| RRIRPRPPRLPRPRPRPDGKPRP | 0.25 |
| RRIRSRPPRLPRPRPRPFMQPRP | -0.638 |
| RRIRQRPPRLPRPRPRPHAMPRP | -0.0121 |
| RRIRERPPRLPRPRPRPHNTPRP | -0.731 |
| RRIRVRPPRLPRPRPRPCGWPRP | 0.302 |
| RRIRERPPRLPRPRPRPRICPRP | -0.111 |
| RRIRQRPPRLPRPRPRPEYFPRP | -0.0285 |
| RRIRLRPPRLPRPRPRPRCPPRP | 0.188 |
| RRIRERPPRLPRPRPRPTWDPRP | -0.327 |

| Sequence | shrunken log2 fold change |
| --- | --- |
| RRIRWRPPRLPRPRPRPKHFPRP | -0.0487 |
| RRIRCRPPRLPRPRPRPMEVPRP | 0.015 |
| RRIRWRPPRLPRPRPRPGRNPRP | -0.000528 |
| RRIRHRPPRLPRPRPRPPDLPRP | 0.0765 |
| RRIRNRPPRLPRPRPRPCCAPRP | -0.0874 |
| RRIRKRPPRLPRPRPRPECQPRP | 0.57 |
| RRIRMRPPRLPRPRPRPNRWPRP | 0.394 |
| RRIRCRPPRLPRPRPRPSPAPRP | 1.35 |
| RRIRVRPPRLPRPRPRPVVAPRP | 0.17 |
| RRIRCRPPRLPRPRPRPNIAPRP | -0.275 |
| RRIRRRPPRLPRPRPRPSYGPRP | -0.83 |
| RRIRSRPPRLPRPRPRPHRKPRP | -0.077 |
| RRIRHRPPRLPRPRPRPWYRPRP | -0.0954 |
| RRIRKRPPRLPRPRPRPIERPRP | 0.11 |
| RRIRHRPPRLPRPRPRPFKFPRP | -0.376 |
| RRIRDRPPRLPRPRPRPTTNPRP | 0.411 |
| RRIRHRPPRLPRPRPRPITNPRP | -1.23 |
| RRIRTRPPRLPRPRPRPLSAPRP | 0.369 |
| RRIRRRPPRLPRPRPRPLHGPRP | 0.233 |
| RRIRDRPPRLPRPRPRPHGLPRP | -0.0404 |
| RRIRVRPPRLPRPRPRPFHSPRP | 0.0749 |
| RRIRQRPPRLPRPRPRPEYGPRP | -0.0248 |
| RRIRYRPPRLPRPRPRPGAKPRP | 0.379 |
| RRIRSRPPRLPRPRPRPVHQPRP | 0.0888 |
| RRIRLRPPRLPRPRPRPQHHPRP | -0.54 |

| Sequence | shrunken log2 fold change |
| --- | --- |
| RRIRTRPPRLPRPRPRPRTAPRP | 2.87 |
| RRIRPRPPRLPRPRPRPGHMPRP | -0.238 |
| RRIRERPPRLPRPRPRPEMPPRP | 0.112 |
| RRIRHRPPRLPRPRPRPDEYPRP | -0.00149 |
| RRIRKRPPRLPRPRPRPSFSPRP | -0.0191 |
| RRIRQRPPRLPRPRPRPRFWPRP | 0.23 |
| RRIRNRPPRLPRPRPRPVRIPRP | 0.0513 |
| RRIRWRPPRLPRPRPRPMYHPRP | -0.712 |
| RRIRLRPPRLPRPRPRPLMGPRP | -0.0491 |
| RRIRRRPPRLPRPRPRPYDNPRP | -0.636 |
| RRIRSRPPRLPRPRPRPEWSPRP | 0.233 |
| RRIRWRPPRLPRPRPRPYQHPRP | -0.692 |
| RRIRPRPPRLPRPRPRPPIKPRP | 0.355 |
| RRIRHRPPRLPRPRPRPLKIPRP | -0.0842 |
| RRIRLRPPRLPRPRPRPCENPRP | 0.00489 |
| RRIRHRPPRLPRPRPRPWVTPRP | 0.0283 |
| RRIRTRPPRLPRPRPRPVSIPRP | -0.082 |
| RRIRKRPPRLPRPRPRPCAHPRP | 0.0754 |
| RRIRDRPPRLPRPRPRPSMEPRP | 0.0308 |
| RRIRWRPPRLPRPRPRPMGNPRP | -0.0828 |
| RRIRQRPPRLPRPRPRPPYNPRP | -0.154 |
| RRIRRRPPRLPRPRPRPRKTPRP | 0.615 |
| RRIRIRPPRLPRPRPRPTEVPRP | 0.232 |
| RRIRPRPPRLPRPRPRPCHFPRP | -0.265 |
| RRIRTRPPRLPRPRPRPWTTPRP | 0.176 |
